In doi:10.1101/2023.12.14.571518 (bioRxiv, 2023):
Blank lines part the entries; values can stand above or below the binder they belong to.

How the values were obtained:
cryo-EM structure = target: the molecule itself; assay: cryo-EM structure
MZT2:GST-GCP2-NHD = MZT2:GST-GCP2-NHD (human, UniProt Q6P582 1-158; Q9BSJ2 1-110); assay: pull-down
Sequence of MZT2:GST-GCP2-NHD (Q6P582 whole entry, chain 1 of 2): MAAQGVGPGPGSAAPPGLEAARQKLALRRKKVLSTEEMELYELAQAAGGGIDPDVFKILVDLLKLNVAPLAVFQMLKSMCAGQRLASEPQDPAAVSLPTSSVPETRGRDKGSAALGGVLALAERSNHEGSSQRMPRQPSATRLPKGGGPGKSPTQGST
Sequence of MZT2:GST-GCP2-NHD (Q9BSJ2 1-110, chain 2 of 2): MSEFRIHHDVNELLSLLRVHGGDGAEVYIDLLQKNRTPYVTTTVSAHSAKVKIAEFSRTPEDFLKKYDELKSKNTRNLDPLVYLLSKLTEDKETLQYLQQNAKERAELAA

B1: CDK5RAP2(51-100) (domain or fragment, human, UniProt Q96SN8 51-100, looked up)
chain: TVSPTRARNMKDFENQITELKKENFNLKLRIYFLEERMQQEFHGPTEHIY
binding result (cryo-EM structure): binds

Kd (MZT2:GST-GCP2-NHD): ≥ 10 µM
B2: CDK5RAP2(44-93) (domain or fragment, human)
chain: SNIGSGGTPSTGSSLPNVSEETVSPTRARNMKDFENQITELKKENFNLKLRIYFLEERMQQEFH
